Results on 84 variants are retold here after the RNAGym collection of RNA variant scans (doi:10.1073/pnas.2313332121).

This sample holds only a part of the variants without activity.

To fix the notation:
B1: TPR 5TU (parent)
chain: GGAUCUUCUCGAUCUAACAAAAAAGACAAAUCUGCCACAAAGCUUGAGAGCAUCUUCGGAUGCAGAGGCGGCAGCCUUCGGUGGCGCGAUAGCGCCAACGUUCUCAACUAUGACACGCAAAACGCGUGCUCCGUUGAAUGGAGUUUAUCAUG

The variants in this series derive from B1. Description: polymerase ribozyme fitness, log enrichment relative to wild type (log ratio); higher = more active; in vitro selection for triplet polymerase activity. The procedure, abridged:
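Both subunits of a heterodimeric triplet polymerase ribozyme were given their own mutant library, built by PCR and transcribed. Each library was annealed with a biotinylated primer, the partner subunit and triplets, incubated frozen at −7 °C, and its extended constructs gel-excised, captured on streptavidin beads and amplified by RT-PCR, all in one round done in triplicate. Fitness is the logarithm of genotype enrichment relative to wild-type enrichment, with replicates averaged by inverse-variance weighting. That logarithm is base 2, and Illumina-sequenced genotypes needed ≥10 input reads and ≥1 read per output.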
Turning to G42C U44G G88A A97C, the “polymerase ribozyme fitness (log ratio)” value was not above -4.2.

For the variant A41C C99G, the “polymerase ribozyme fitness (log ratio)” value was -0.603. Then A41G G59A G81U C95A C114U, with -1.27; and A41U A52C, with -2.05; and A41U A52U, with -2.47. In the case of A41G G48A C87A U148C, the “polymerase ribozyme fitness (log ratio)” value is not above -4.2. G42C G46A G68C C95A A106U C108G: the “polymerase ribozyme fitness (log ratio)” value was not above -4.2. For G42A A142C U148G, the “polymerase ribozyme fitness (log ratio)” value is not above -4.2. Regarding A41G G59A U61A, the “polymerase ribozyme fitness (log ratio)” value is -0.462. For G42A C51G C75G C99U, the “polymerase ribozyme fitness (log ratio)” value was not above -4.2. Then A41U C85U A91U A107U, with not above -4.2; and G42A G92A C96U A98G U151G, with not above -4.2. For A41G C85A U101G, the “polymerase ribozyme fitness (log ratio)” value was -1.82. For the variant A41C C85U C87U G133C G143A, the “polymerase ribozyme fitness (log ratio)” value is -4.18. With A41U G50A, the “polymerase ribozyme fitness (log ratio)” value was -2.68. Regarding A41C C63G G92U, the “polymerase ribozyme fitness (log ratio)” value is -0.619. Then A41C G58A, with 0.163; and G42C U44A A52G G70U G83C, with not above -4.2; and A41C G83C, with -0.571. A41C C149A: the “polymerase ribozyme fitness (log ratio)” value was -4.19. Regarding A41U A73U, the “polymerase ribozyme fitness (log ratio)” value is -1.65. A41U C85G: the “polymerase ribozyme fitness (log ratio)” value was -2.37. On to A41U U53A G74C U82C, for which the “polymerase ribozyme fitness (log ratio)” value is not above -4.2. For A41C G67A G81U G94C A107C, the “polymerase ribozyme fitness (log ratio)” value is not above -4.2. As for A41U G83U G84U A98U A120U G124A, the “polymerase ribozyme fitness (log ratio)” value was -3.95. In the case of A41G A49C G68U C76U C93U A97U, the “polymerase ribozyme fitness (log ratio)” value was not above -4.2.

As for A41C C87G G100C G126A A142C, the “polymerase ribozyme fitness (log ratio)” value was not above -4.2. For the variant A41U C103G A113G C125A, the “polymerase ribozyme fitness (log ratio)” value was not above -4.2.

With G42C C96U C99U, the “polymerase ribozyme fitness (log ratio)” value is not above -4.2. For A41U C75A C93U, the “polymerase ribozyme fitness (log ratio)” value was not above -4.2.

A41U C54A C79U G88C U148C: the “polymerase ribozyme fitness (log ratio)” value is not above -4.2. With A41G G83C C99A, the “polymerase ribozyme fitness (log ratio)” value was -2.03. A41C G42C C43G G84U C95U C96G: the “polymerase ribozyme fitness (log ratio)” value is not above -4.2. Under G42A G48A U102C C103A stands not above -4.2; under A41G G65A G143U, -3.42; under G42C C43U A91U C93G, not above -4.2. Consider A41U U55A C85A A150U, for which the “polymerase ribozyme fitness (log ratio)” value was -2.65. Then G42A G59C C125G, with not above -4.2; and A41U C54G G88C U130A, with not above -4.2; and A41C U148C, with -3.07. For the variant A41C U148G, the “polymerase ribozyme fitness (log ratio)” value is not above -4.2. As for G42A G59A U102G, the “polymerase ribozyme fitness (log ratio)” value is not above -4.2. On to A41G U53A C85A, for which the “polymerase ribozyme fitness (log ratio)” value was -2.72. Turning to G42A C54G U82C G94U, the “polymerase ribozyme fitness (log ratio)” value was not above -4.2. With A41C U56G C76A C118G U134C, the “polymerase ribozyme fitness (log ratio)” value was -3.21. As for G42A A49C C69G A137U, the “polymerase ribozyme fitness (log ratio)” value is not above -4.2.

On to A41C C87U, for which the “polymerase ribozyme fitness (log ratio)” value is -1.35. Take A41C C87G: the “polymerase ribozyme fitness (log ratio)” value was not above -4.2.

For the variant G42C G62U A64C G71A C79G C132G U139G U146G, the “polymerase ribozyme fitness (log ratio)” value is not above -4.2. Under G42C U55A A66G U144A stands not above -4.2; under A41U U144G G152A, -1.09; under A41U C54G G65C G84U G141A C149A, not above -4.2.

For the variant A41G C96A, the “polymerase ribozyme fitness (log ratio)” value stood at 0.0745.

Turning to G42A C85U, the “polymerase ribozyme fitness (log ratio)” value is not above -4.2. On to A41G G42U A66U G74A U151G, for which the “polymerase ribozyme fitness (log ratio)” value is not above -4.2.

G42A G50A C76U G84U G92A A107C C116G: the “polymerase ribozyme fitness (log ratio)” value was not above -4.2. Consider A41C C63U C76G C93A U127A, for which the “polymerase ribozyme fitness (log ratio)” value was not above -4.2. Then G42C G94C U111C, with not above -4.2; and G42A C87G, with not above -4.2. In the case of A41C U134G, the “polymerase ribozyme fitness (log ratio)” value was -2.46. As to G42A G62C C116G C125U A142U A150C, the “polymerase ribozyme fitness (log ratio)” value is not above -4.2. On to A41C G136A, for which the “polymerase ribozyme fitness (log ratio)” value stood at 0.215.

Take G42A U148C: the “polymerase ribozyme fitness (log ratio)” value was not above -4.2.

In the case of A41U U82A A142C, the “polymerase ribozyme fitness (log ratio)” value is -2.88. Under G42C G88U C95A stands not above -4.2.

For A41U A120G G143A, the “polymerase ribozyme fitness (log ratio)” value is -2.06. Regarding A41U C63U U102C, the “polymerase ribozyme fitness (log ratio)” value was -3.6. G42C G80C C93A U104A C108G U145A U146C: the “polymerase ribozyme fitness (log ratio)” value is not above -4.2. Consider G42A G88C, for which the “polymerase ribozyme fitness (log ratio)” value is not above -4.2. For the variant A41G A60U U130C, the “polymerase ribozyme fitness (log ratio)” value was -0.614. Regarding A41C G50C U55A C85G, the “polymerase ribozyme fitness (log ratio)” value was not above -4.2. For A41C U77C G80A U102C U144G, the “polymerase ribozyme fitness (log ratio)” value is not above -4.2. On to G42C C72U, for which the “polymerase ribozyme fitness (log ratio)” value was not above -4.2. Take A41G A47U C51U A52C G88A G136U: the “polymerase ribozyme fitness (log ratio)” value was not above -4.2.

In the case of A41U C76A, the “polymerase ribozyme fitness (log ratio)” value is -1.99. Under A41G G84U stands -0.79. Under A41G C93A G124U stands -1.5; under A41C G81U G86U U104C, -1.73; under G42C U44G A106G, not above -4.2. As to A41G G88U C131G, the “polymerase ribozyme fitness (log ratio)” value is not above -4.2. As for A41U G83U U90G C93G A106U, the “polymerase ribozyme fitness (log ratio)” value was not above -4.2. Turning to G42C A60U G67C G128U A138U, the “polymerase ribozyme fitness (log ratio)” value was not above -4.2. For the variant A41G A49C U82G U90G G133A, the “polymerase ribozyme fitness (log ratio)” value is not above -4.2. On to A41U A49G A52C G84A C103G A115U, for which the “polymerase ribozyme fitness (log ratio)” value is not above -4.2.
